Test results from paper PMC9204302, “Novel Pharmacology Following Heteromerization of the Angiotensin II Type 2 Receptor and the Bradykinin Type 2 Receptor” (Frontiers in Endocrinology, 2022).

T1: Venus-tagged B2 receptor (B2-Venus) (human, UniProt P30411 1-391)
T1 construct: made by replacing the Rluc8 coding region of B2-Rluc8 with Venus cDNA; C-terminal end of the tag follows from the parent B2-Rluc8; source: HEK293FT, transiently transfected, in live cells; not shown: Venus, C-terminal, kept
T1 sequence (looked up): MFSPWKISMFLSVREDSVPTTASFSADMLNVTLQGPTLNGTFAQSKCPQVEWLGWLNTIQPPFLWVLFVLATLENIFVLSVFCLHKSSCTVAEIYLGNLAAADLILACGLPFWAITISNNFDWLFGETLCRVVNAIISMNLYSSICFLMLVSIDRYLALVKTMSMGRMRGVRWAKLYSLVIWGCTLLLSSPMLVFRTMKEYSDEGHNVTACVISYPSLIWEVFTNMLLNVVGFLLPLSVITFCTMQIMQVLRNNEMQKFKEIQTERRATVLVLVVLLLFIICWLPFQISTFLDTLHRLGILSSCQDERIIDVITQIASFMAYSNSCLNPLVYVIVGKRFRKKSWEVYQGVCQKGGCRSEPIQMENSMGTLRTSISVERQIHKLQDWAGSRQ


Assays:
[1] = target: B2 receptor tagged with Rluc8 (B2-Rluc8) (human) (UniProt P30411); test: FRET or BRET; BRET1/eBRET in live HEK293FT cells, one BRET-tagged receptor and one BRET-tagged interacting protein coexpressed, no second receptor; ligand-induced BRET after AngII or BK, 37°C
[2] = target: T1, Venus-tagged B2 receptor (B2-Venus); test: as above; settings: partners not purified

pEC50 of BK (ligand-induced BRET) [1]	pEC50 of BK (ligand-induced BRET) [2]	Molecule
7.73	–	NES-Venus-mGsq (Venus-tagged mini G protein)
–	7.35	Rluc8-tagged GRK2 (GRK2-Rluc8) (enzyme, UniProt P25098 1-689, looked up, GPCR kinase 2 (GRK2); construct synthesized by GeneArt; also called GPCR kinase 2; source: HEK293FT, transiently transfected, in live cells) MADLEAVLADVSYLMAMEKSKATPAARASKKILLPEPSIRSVMQKYLEDRGEVTFEKIFSQKLGYLLFRDFCLNHLEEARPLVEFYEEIKKYEKLETEEERVARSREIFDSYIMKELLACSHPFSKSATEHVQGHLGKKQVPPDLFQPYIEEICQNLRGDVFQKFIESDKFTRFCQWKNVELNIHLTMNDFSVHRIIGRGGFGEVYGCRKADTGKMYAMKCLDKKRIKMKQGETLALNERIMLSLVSTGDCPFIVCMSYAFHTPDKLSFILDLMNGGDLHYHLSQHGVFSEADMRFYAAEIILGLEHMHNRFVVYRDLKPANILLDEHGHVRISDLGLACDFSKKKPHASVGTHGYMAPEVLQKGVAYDSSADWFSLGCMLFKLLRGHSPFRQHKTKDKHEIDRMTLTMAVELPDSFSPELRSLLEGLLQRDVNRRLGCLGRGAQEVKESPFFRSLDWQMVFLQKYPPPLIPPRGEVNAADAFDIGSFDEEDTKGIKLLDSDQELYRNFPLTISERWQQEVAETVFDTINAETDRLEARKKAKNKQLGHEEDYALGKDCIMHGYMSKMGNPFLTQWQRRYFYLFPNRLEWRGEGEAPQSLLTMEEIQSVEETQIKERKCLLLKIRGGKQFILQCDSDPELVQWKKELRDAYREAQQLVQRVPKMKNKPRSPVVELSKVPLVQRGSANGL
